# B1: GST-STRADα lacking the C-terminal 88 residues (other, human)
# chain: DYKDDDDKMSFLVSKPERIRRWVSEKFIVEGLRDLELFGEQPPGDTRRKTNDASSESIASFSKQEVMSSFLPEGGCYELLTVIGKGFEDLMTVNLARYKPTGEYVTVRRINLEACSNEMVTFLQGELHVSKLFNHPNIVPYRATFIADNELWVVTSFMAYGSAKDLICTHFMDGMNELAIAYILQGVLKALDYIHHMGYVHRSVKASHILISVDGKVYLSGLRSNLSMISHGQRQRVVHDFPKYSVKVLPWLSPEVLQQNLQGYDAKSDIYSVGITACELANGHVPFKDMPATQMLLEKLNGTVPCLLDTSTIPAEELTMSPSRSVANSGLSDSLTTSTPRPSNGDSPSHP
# notes: not shown: glutathione S-transferase (GST) tag, N-terminal, pEBG-2T vector
# B2: N-terminal Myc-tagged MO25α (other, human, UniProt Q9Y376 1-341, looked up)
# chain: MPFPFGKSHKSPADIVKNLKESMAVLEKQDISDKKAEKATEEVSKNLVAMKEILYGTNEKEPQTEAVAQLAQELYNSGLLSTLVADLQLIDFEGKKDVAQIFNNILRRQIGTRTPTVEYICTQQNILFMLLKGYESPEIALNCGIMLRECIRHEPLAKIILWSEQFYDFFRYVEMSTFDIASDAFATFKDLLTRHKLLSAEFLEQHYDRFFSEYEKLLHSENYVTKRQSLKLLGELLLDRHNFTIMTKYISKPENLKLMMNLLRDKSRNIQFEAFHVFKVFVANPNKTQPILDILLKNQAKLIEFLSKFQNDRTEDEQFNDEKTYLVKQIRDLKRPAQQEA
# notes: also called Myc-MO25α; myc-MO25α; not shown: only the DNA primer is printed
# Assays:
# [1] = target: T1, N-terminal Flag epitope tagged wild type LKB1 (mouse, UniProt Q9WTK7 1-436); test: GST pull-down from co-transfected 293 cells
# T1 construct: not restated for the HeLa lines; also called Flag-LKB1; WT LKB1
# T1 sequence: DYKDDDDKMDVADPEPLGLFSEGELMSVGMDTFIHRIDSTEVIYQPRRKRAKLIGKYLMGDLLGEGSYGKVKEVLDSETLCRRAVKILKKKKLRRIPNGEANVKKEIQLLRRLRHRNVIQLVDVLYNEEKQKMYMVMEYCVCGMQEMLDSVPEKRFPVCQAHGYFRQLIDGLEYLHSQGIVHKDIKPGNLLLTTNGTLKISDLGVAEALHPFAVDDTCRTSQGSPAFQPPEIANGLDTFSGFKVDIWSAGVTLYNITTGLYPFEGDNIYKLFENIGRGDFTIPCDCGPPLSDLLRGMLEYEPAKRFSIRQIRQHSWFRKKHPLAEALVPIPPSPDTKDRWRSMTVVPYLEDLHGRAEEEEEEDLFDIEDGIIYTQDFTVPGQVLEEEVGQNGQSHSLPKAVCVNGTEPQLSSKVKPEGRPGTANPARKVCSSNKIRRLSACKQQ
# Method: (§1) FIG. 7. Binding of LKB1 to STRADα creates novel binding site(s) for MO25α. […] Similar results were obtained in 3 separate experiments.
# (§2) Expression of GST-fusion proteins in 293 cells and affinity purification. 10-cm diameter dishes of 293 cells were transiently transfected with 3 to 10 μg of the pEBG-2T constructs using a modified calcium phosphate method (Alessi et al., 1996). 36 h post-transfection, the cells were lysed and the clarified lysates were incubated for 1 h on a rotating platform with glutathione-Sepharose (25 μl/dish of lysate) previously equilibrated in lysis Buffer. The beads were washed 4 times with lysis Buffer containing 150 mM NaCl and twice with Buffer A. For immunoblotting analysis, the beads were then resuspended in SDS sample Buffer after this step to give a final volume of slurry of 75 μl, and the samples immunoblotted as described above. For protein kinase assays and gel electrophoresis, the beads were washed a further twice with Buffer A containing 0.27 M sucrose and the proteins were eluted from the resin by incubation with the same buffer containing 20 mM of glutathione. The beads were then removed by filtration through a 0.44-μm filter and the eluate divided into aliquots and stored at −80° C.
# [2] = target: T2, Flag-tagged STRADβ (human, UniProt Q9C0K7 1-418); test: heterotrimeric complex purified through GST-LKB1 from co-transfected 293 cells, colloidal blue gel and blots
# T2 construct: pCMV5 vector; also called Flag-STRADβ; FLAG-STRADβ
# T2 sequence: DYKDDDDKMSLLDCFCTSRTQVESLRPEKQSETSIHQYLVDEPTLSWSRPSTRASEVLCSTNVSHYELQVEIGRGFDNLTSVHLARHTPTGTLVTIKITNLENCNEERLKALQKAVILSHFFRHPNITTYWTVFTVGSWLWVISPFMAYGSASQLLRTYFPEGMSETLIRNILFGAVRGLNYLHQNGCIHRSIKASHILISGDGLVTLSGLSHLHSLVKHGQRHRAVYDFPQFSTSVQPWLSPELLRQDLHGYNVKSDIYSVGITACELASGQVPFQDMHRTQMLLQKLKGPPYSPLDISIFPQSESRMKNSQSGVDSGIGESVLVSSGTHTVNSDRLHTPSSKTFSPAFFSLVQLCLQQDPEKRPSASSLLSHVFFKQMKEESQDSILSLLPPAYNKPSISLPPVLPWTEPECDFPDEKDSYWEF
# Method: (§3) FIG. 4. MO25α is associated with LKB1 through STRAD (A) 293 cells were transfected with plasmids encoding for the expression of the indicated GST fusion proteins together with Myc-MO25α. 36 h post transfection, the GST tagged proteins were affinity purified from the cell lysates using glutathione-Sepharose as described in Materials and Methods. […] 5 μg of total cell lysates prior to affinity purification were also subjected to immunoblotting with anti-Myc antibody to ensure that Myc-MO25α was expressed at similar levels in each co-transfection (lower panel). (B) N-terminal GST tagged LKB1 was expressed in 293 cells in the presence or absence of Flag-STRADα and purified as above. The purified proteins were subjected to SDS-polyacrylamide gel electrophoresis and visualised by Colloidal blue staining (upper panel). The faint protein band indicated, corresponding to an endogenous protein of 40-kDa (marked *), was identified by tryptic peptide mass-spectral fingerprint as endogenously expressed MO25α (with 38% sequence coverage). The purified proteins were also immunoblotted with the indicated antibodies (lower panels). (C) As above except that GST-LKB1 was expressed in 293 cells together with the indicated isoforms of Flag-STRAD and Myc-MO25 and the proteins visualised by colloidal blue staining were also immunoblotted with the indicated antibodies. For all panels, similar results were obtained in at least 3 separate experiments.
# (§4) Expression of GST-fusion proteins in 293 cells and affinity purification. 10-cm diameter dishes of 293 cells were transiently transfected with 3 to 10 μg of the pEBG-2T constructs using a modified calcium phosphate method (Alessi et al., 1996). 36 h post-transfection, the cells were lysed and the clarified lysates were incubated for 1 h on a rotating platform with glutathione-Sepharose (25 μl/dish of lysate) previously equilibrated in lysis Buffer.
# [3] = target: T3, Flag-tagged STRADα (human, UniProt Q7RTN6 1-431, limits assumed); test: as above
# T3 construct: pCMV5 vector; also called Flag-STRADα; FLAG-STRADα
# T3 sequence: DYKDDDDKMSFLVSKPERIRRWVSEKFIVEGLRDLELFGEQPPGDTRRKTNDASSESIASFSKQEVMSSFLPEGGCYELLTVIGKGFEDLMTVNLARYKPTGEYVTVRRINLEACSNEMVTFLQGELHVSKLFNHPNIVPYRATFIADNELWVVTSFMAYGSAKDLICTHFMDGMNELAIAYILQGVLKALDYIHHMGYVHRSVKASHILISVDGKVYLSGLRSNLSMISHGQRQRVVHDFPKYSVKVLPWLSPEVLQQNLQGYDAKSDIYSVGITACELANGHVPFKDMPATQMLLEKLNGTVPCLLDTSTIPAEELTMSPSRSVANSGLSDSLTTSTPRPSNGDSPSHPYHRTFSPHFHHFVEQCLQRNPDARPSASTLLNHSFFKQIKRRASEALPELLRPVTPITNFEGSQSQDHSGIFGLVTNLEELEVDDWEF
# Method: as §3, §4
# [4] = target: T4, GST-STRADα lacking the last 3 amino acids (Trp-Glu-Phe) (human, UniProt Q7RTN6 1-428); test: GST pull-down from co-transfected 293 cells, anti-Myc blot
# T4 construct: not shown: glutathione S-transferase (GST) tag, N-terminal, pEBG-2T vector
# T4 sequence: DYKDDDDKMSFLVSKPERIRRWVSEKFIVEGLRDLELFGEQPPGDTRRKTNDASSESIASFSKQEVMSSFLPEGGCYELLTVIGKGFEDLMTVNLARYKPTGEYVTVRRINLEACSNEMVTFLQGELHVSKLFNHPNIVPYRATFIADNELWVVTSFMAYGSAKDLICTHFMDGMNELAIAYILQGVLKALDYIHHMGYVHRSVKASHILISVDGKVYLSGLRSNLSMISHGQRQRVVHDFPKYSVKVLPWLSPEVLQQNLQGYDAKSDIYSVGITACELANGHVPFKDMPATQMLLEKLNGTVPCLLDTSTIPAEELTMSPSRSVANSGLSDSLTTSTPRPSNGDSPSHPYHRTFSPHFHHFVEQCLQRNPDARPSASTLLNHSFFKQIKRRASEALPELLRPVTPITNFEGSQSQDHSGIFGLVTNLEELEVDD
# Method: 5 μg of the total cell lysates prior to affinity purification were also subjected to immunoblotting with anti-Myc antibody to ensure that Myc-MO25α was expressed at similar levels in each condition (lower panel). (B) 0.5 mg of the indicated cell lysates was incubated with 5 μg of an N-terminal biotinylated peptide encompassing either the C-terminal 12 residues STRADα conjugated to streptavidin-Sepharose ([…], termed STRADα-C12) or mutants of this peptide in which the indicated residues were individually mutated to Ala. Following isolation and washing of the beads, the samples were subjected to SDS-polyacrylamide gel electrophoresis and immunoblotted with an anti-MO25α antibody. (C) Binding of bacterially expressed MO25α to the indicated peptides was analysed by surface plasmon resonance BiaCore analysis as described in Materials and Methods. […] WEF-C12 corresponds to […], WEA-C12 corresponds to […], AEF-C12 corresponds to […], WAF-C12 corresponds to […], WEF-C6 corresponds to VDDWEF.
# Expression of GST-fusion proteins in 293 cells and affinity purification. 10-cm diameter dishes of 293 cells were transiently transfected with 3 to 10 μg of the pEBG-2T constructs using a modified calcium phosphate method (Alessi et al., 1996). […]
# [5] = target: B1; test: GST pull-down from co-transfected 293 cells
# Method: as §1, §2
Binder,binding result [1],binding result [2],binding result [3],binding result [4],binding result [5]
B1,no binding,,,,
B2,,binds,binds,no binding,no binding

# Source: patent US20070036793A1, “Methods for use of an lkb1/strad7mo25 complex” (priority 2003, published 2007)
